The values that follow come from article PMC8725580.

Conditions in all cases: 20 mM Tris pH 7.5, 1 mM CaCl2, 1 mM DTT, 10 ug/ml poly(dI-dC), 100 ug/ml BSA, 37 C, 10 min; probe 0.05 uM (0.1 uM restricted)
Data set [1] relates to T1, CovR D53E D52E (Streptococcus salivarius HSISS4), ORF:ee641105.
T1 sequence: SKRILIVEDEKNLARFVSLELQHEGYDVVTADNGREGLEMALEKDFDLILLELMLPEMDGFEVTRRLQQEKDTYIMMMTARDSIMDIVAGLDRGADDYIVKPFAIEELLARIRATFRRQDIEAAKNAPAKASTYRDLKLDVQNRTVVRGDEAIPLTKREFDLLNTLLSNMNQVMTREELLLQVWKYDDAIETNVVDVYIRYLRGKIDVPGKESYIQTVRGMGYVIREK
The experiment in a line: competition.

For data set [2] the test system is unchanged. Put plainly: EMSA. A general note: In EMSA bound probe runs differently from free probe, usually more slowly.
Data set [3] has as its system T2, CovR WT (Strep-tagged) (Streptococcus salivarius HSISS4), ORF:ee641105.
T2 sequence: T1 sequence with E52D
Put plainly: EMSA.

The test system of data set [4] is T3, CovR D53A D52A (Streptococcus salivarius HSISS4), ORF:ee641105.
T3 sequence: T1 sequence with E52A
The experiment in a line: EMSA.

Positions count from the first letter of the chain named.

On to “AAAAATAATGAGCACTTAAAAGAATGGGATAAGGACAATATCAAAAATGTTGTTCTATCTCATTCTTTTTGTTTGAAACAGTTAATATGGTAGAGGCGTTTTTACTAGTAGCGTATGCTATAATAGAAAGATAGAAAGGAGGCCTTCATG (double strand) [PdnaE unlabeled competitor]”, for which the binding entry in data set [1] is reported as “no binding”.
On the same count and under the same terms, the entry for “CAAGAGACACTCCTTTATTTCGAAATTTTAAAAACATTATATCATAATTATAATATAATTAATATACAGTTAATGCATTTTTAACAGAACAATAGTGAAAATAAGCTATTTTTATACATTTTATATAGGAAAGACCTTCCTTTGTATCAA (double strand) [PcomR unlabeled competitor]” is “binds”; for “CCTGTAGTTCCCTTACATACAGTGCGTTACTTTGAGAATGCAGACCGCTCGACGATTCAGATGTTGCATGCCATCTCGCAAAACGTTTCCTTGTCAGAGGCCTCTATTTGTCCTATGAATCAGCTTCTTTTCTCGCCTCAAGAAATGGAA (double strand) [CDSdnaE unlabeled competitor]” it is “no binding”.
“TTGATACAAAGGAAGGTCTTTCCTATATAAAATGTATAAAAATAGCTTATTTTCACTATTGTTCTGTTAAAAATGCATTAACTGTATATTAATTATATTATAATTATGATATAATGTTTTTAAAATTTCGAAATAAAGGAGTGTCTCTTG (double strand) [PcomR HSISS4 (150 bp)]”: the binding entry is recorded as “binds” in data set [2], “binds” in data set [3] and “binds more weakly” in data set [4].
